Publication PMC5915598, “Structural basis for the activation of acid ceramidase” (Nature Communications, 2018)

Target: T1, human acid ceramidase (aCDase, ASAH1) β-subunit (human, UniProt Q13510 143-395, N-glycosylated (insect cell glycans); disulfide C340 to C31 of the α-subunit; disulfide C388/C392)
T1 construct: acid ceramidase, human, UniProt Q13510; the construct spans residues 22-395 and autocleaves before Cys 143, which becomes the N terminus of the β-subunit: residues 143-395; Made as one chain with the α-subunit and set free by autocleavage; also called 30 kDa β-subunit
T1 sequence (looked up): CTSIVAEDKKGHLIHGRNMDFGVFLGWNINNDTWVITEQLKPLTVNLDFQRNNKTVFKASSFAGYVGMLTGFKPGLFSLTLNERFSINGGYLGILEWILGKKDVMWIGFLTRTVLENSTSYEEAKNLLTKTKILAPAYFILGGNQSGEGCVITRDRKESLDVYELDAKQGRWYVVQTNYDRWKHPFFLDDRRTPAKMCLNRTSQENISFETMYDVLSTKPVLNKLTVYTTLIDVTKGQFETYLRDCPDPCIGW
Assay: crystal structure; autocleaved human aCDase, incubated with 1 mM ceranib-2 and 1 mM Triton X-100, crystallised at 22 °C in 100 mM sodium phosphate-citrate pH 4.3, 200 mM Li2SO4, 20% PEG 1000; the two subunits come from one chain and are also linked by a disulfide
Details: both partners purified

binding result: binds
B1: human acid ceramidase (aCDase, ASAH1) α-subunit (domain or fragment, UniProt Q13510 22-142, looked up)
chain: QHAPPWTEDCRKSTYPPSGPTYRGAVPWYTINLDLPPYKRWHELMLDKAPVLKVIVNSLKNMINTFVPSGKVMQVVDEKLPGLLGNFPGPFEEEMKGIAAVTDIPLGEIISFNIFYELFTI
modifications: N-glycosylated (insect cell glycans); disulfide C31 to C340 of the β-subunit
notes: acid ceramidase, human, UniProt Q13510 variant Ile93Val; the construct spans residues 22-395 and autocleaves at the peptide bond between Ile 142 and Cys 143, so the α-subunit is residues 22-142; no removal of the tag is told; Residues 141 and 142 are disordered in the structure; also called 13 kDa α-subunit
